# B1: Very-long-chain enoyl-CoA reductase (Homo sapiens), Q9NZ01 (parent)
# chain: MKHYEVEILDAKTREKLCFLDKVEPHATIAEIKNLFTKTHPQWYPARQSLRLDPKGKSLKDEDVLQKLPVGTTATLYFRDLGAQISWVTVFLTEYAGPLFIYLLFYFRVPFIYGHKYDFTSSRHTVVHLACICHSFHYIKRLLETLFVHRFSHGTMPLRNIFKNCTYYWGFAAWMAYYINHPLYTPPTYGAQQVKLALAIFVICQLGNFSIHMALRDLRPAGSKTRKIPYPTKNPFTWLFLLVSCPNYTYEVGSWIGFAIMTQCLPVALFSLVGFTQMTIWAKGKHRSYLKEFRDYPPLRMPIIPFLL
# partner: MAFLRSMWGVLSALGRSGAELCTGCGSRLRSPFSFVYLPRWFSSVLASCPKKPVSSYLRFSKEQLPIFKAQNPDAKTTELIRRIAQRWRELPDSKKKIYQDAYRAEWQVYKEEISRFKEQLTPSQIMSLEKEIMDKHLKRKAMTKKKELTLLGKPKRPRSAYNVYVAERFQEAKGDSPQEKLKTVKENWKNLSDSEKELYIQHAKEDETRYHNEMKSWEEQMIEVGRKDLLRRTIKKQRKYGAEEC
# B2: Ceroid-lipofuscinosis neuronal protein 6 (Homo sapiens), Q9NWW5 (parent)
# chain: MEATRRRQHLGATGGPGAQLGASFLQARHGSVSADEAARTAPFHLDLWFYFTLQNWVLDFGRPIAMLVFPLEWFPLNKPSVGDYFHMAYNVITPFLLLKLIERSPRTLPRSITYVSIIIFIMGASIHLVGDSVNHRLLFSGYQHHLSVRENPIIKNLKPETLIDSFELLYYYDEYLGHCMWYIPFFLILFMYFSGCFTASKAESLIPGPALLLVAPSGLYYWYLVTEGQIFILFIFTFFAMLALVLHQKRKRLFLDSNGLFLFSSFALTLLLVALWVAWLWNDPVLRKKYPGVIYVPEPWAFYTLHVSSRH
# partner: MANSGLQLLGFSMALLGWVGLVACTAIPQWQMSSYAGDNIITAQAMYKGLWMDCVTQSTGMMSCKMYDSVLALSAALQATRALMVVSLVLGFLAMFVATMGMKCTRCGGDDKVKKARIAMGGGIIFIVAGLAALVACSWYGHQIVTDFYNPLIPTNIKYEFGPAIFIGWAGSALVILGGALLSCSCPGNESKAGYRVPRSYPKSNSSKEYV
# B3: Very-long-chain enoyl-CoA reductase (Homo sapiens), Q9NZ01 (parent)
# chain: B1 chain
# partner: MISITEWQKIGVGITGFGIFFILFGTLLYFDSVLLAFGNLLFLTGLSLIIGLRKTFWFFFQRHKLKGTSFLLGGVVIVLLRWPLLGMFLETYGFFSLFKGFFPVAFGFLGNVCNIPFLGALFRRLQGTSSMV
# B4: Golgi SNAP receptor complex member 2 (Homo sapiens), O14653 (parent)
# chain: MDPLFQQTHKQVHEIQSCMGRLETADKQSVHIVENEIQASIDQIFSRLERLEILSSKEPPNKRQNARLRVDQLKYDVQHLQTALRNFQHRRHAREQQERQREELLSRTFTTNDSDTTIPMDESLQFNSSLQKVHNGMDDLILDGHNILDGLRTQRLTLKGTQKKILDIANMLGLSNTVMRLIEKRAFQDKYFMIGGMLLTCVVMFLVVQYLT
# partner: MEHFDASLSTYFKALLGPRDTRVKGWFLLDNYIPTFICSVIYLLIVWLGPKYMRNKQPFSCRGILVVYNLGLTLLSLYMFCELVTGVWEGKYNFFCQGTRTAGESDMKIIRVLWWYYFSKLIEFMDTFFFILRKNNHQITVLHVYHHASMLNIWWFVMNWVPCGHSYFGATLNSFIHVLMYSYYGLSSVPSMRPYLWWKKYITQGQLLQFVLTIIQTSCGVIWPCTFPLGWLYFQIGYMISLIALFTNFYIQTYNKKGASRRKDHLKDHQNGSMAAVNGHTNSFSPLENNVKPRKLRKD
# B5: Succinate--CoA ligase [ADP-forming] subunit beta, mitochondrial (Homo sapiens), Q9P2R7 (parent)
# chain: MAASMFYGRLVAVATLRNHRPRTAQRAAAQVLGSSGLFNNHGLQVQQQQQRNLSLHEYMSMELLQEAGVSVPKGYVAKSPDEAYAIAKKLGSKDVVIKAQVLAGGRGKGTFESGLKGGVKIVFSPEEAKAVSSQMIGKKLFTKQTGEKGRICNQVLVCERKYPRREYYFAITMERSFQGPVLIGSSHGGVNIEDVAAESPEAIIKEPIDIEEGIKKEQALQLAQKMGFPPNIVESAAENMVKLYSLFLKYDATMIEINPMVEDSDGAVLCMDAKINFDSNSAYRQKKIFDLQDWTQEDERDKDAAKANLNYIGLDGNIGCLVNGAGLAMATMDIIKLHGGTPANFLDVGGGATVHQVTEAFKLITSDKKVLAILVNIFGGIMRCDVIAQGIVMAVKDLEIKIPVVVRLQGTRVDDAKALIADSGLKILACDDLDEAARMVVKLSEIVTLAKQAHVDVKFQLPI
# partner: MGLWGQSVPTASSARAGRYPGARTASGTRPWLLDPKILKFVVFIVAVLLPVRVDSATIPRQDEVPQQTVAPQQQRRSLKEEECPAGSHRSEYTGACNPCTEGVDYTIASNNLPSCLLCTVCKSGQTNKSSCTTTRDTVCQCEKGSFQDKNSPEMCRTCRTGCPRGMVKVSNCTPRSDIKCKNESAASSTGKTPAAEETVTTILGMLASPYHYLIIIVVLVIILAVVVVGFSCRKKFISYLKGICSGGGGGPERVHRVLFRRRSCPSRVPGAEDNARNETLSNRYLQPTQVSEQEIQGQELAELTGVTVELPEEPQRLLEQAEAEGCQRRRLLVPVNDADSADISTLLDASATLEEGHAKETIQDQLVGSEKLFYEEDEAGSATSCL
# B6: Golgi SNAP receptor complex member 2 (Homo sapiens), O14653 (parent)
# chain: B4 chain
# partner: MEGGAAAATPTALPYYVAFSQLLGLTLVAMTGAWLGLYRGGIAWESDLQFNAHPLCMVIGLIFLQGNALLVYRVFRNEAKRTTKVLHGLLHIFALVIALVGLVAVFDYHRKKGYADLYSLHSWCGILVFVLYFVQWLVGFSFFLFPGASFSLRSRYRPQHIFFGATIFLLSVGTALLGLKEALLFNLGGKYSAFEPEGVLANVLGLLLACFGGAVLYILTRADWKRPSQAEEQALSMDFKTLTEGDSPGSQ
# B7: Golgi SNAP receptor complex member 2 (Homo sapiens), O14653 (parent)
# chain: B4 chain
# partner: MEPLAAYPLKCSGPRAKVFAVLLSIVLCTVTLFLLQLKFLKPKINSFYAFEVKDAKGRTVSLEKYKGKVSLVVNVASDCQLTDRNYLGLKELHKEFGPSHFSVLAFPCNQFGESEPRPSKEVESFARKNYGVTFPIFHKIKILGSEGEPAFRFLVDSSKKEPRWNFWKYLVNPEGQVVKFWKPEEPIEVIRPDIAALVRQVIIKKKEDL
# B8: Ceroid-lipofuscinosis neuronal protein 6 (Homo sapiens), Q9NWW5 (parent)
# chain: B2 chain
# partner: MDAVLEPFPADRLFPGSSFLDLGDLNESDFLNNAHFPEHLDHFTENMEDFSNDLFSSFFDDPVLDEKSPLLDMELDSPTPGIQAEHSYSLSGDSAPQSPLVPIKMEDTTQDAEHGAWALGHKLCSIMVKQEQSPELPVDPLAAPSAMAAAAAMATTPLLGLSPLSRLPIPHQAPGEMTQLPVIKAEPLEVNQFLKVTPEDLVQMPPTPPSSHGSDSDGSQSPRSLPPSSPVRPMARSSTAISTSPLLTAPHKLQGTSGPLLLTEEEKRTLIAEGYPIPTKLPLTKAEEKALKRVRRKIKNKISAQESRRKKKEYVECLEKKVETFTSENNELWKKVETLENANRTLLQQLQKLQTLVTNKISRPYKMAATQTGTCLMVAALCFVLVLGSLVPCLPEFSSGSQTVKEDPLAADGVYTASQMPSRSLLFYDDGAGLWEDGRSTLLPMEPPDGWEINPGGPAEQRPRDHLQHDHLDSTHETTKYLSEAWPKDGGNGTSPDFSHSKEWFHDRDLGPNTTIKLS
# B9: Golgi SNAP receptor complex member 2 (Homo sapiens), O14653 (parent)
# chain: B4 chain
# partner: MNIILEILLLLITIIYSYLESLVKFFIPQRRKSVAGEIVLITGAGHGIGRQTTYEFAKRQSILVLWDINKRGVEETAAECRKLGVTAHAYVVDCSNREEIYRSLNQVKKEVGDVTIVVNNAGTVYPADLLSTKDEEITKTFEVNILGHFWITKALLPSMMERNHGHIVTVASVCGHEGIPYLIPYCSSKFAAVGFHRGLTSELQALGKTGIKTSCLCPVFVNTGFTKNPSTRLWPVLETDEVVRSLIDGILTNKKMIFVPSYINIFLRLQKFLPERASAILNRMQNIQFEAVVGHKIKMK
# B10: Ceroid-lipofuscinosis neuronal protein 6 (Homo sapiens), Q9NWW5 (parent)
# chain: B2 chain
# partner: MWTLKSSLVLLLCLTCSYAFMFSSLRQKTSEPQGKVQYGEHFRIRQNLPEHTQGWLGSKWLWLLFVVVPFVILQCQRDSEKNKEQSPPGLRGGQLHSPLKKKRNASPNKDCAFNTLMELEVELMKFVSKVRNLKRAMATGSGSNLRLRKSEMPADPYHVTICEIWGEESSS
# B11: Catenin alpha-3 (Homo sapiens), Q9UI47-2 (parent)
# chain: MSAETPITLNIDPQDLQVQTFTVEKLLEPLIIQVTTLVNCPQNPSSRKKGRSKRASVLLASVEEATWNLLDKGEKIAQEATVLKDELTASLEEVRKESEALKVSAERFTDDPCFLPKREAVVQAARALLAAVTRLLILADMIDVMCLLQHVSAFQRTFESLKNVANKSDLQKTYQKLGKELENLDYLAFKRQQDLKSPNQRDEIAGARASLKENSPLLHSICSACLEHSDVASLKASKDTVCEEIQNALNVISNASQGIQNMTTPPEPQAATLGSALDELENLIVLNPLTVTEEEIRPSLEKRLEAIISGAALLADSSCTRDLHRERIIAECNAIRQALQDLLSEYMNNAGKKERSNTLNIALDNMCKKTRDLRRQLRKAIIDHVSDSFLDTTVPLLVLIEAAKNGREKEIKEYAAIFHEHTSRLVEVANLACSMSTNEDGIKIVKIAANHLETLCPQIINAALALAARPKSQAVKNTMEMYKRTWENHIHVLTEAVDDITSIDDFLAVSGMFLFF
# partner: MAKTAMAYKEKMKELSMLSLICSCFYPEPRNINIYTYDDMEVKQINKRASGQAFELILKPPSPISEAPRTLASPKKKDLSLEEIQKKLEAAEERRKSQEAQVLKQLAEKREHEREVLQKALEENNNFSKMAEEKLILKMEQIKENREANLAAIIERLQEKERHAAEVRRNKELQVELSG
# B12: Very-long-chain enoyl-CoA reductase (Homo sapiens), Q9NZ01 (parent)
# chain: B1 chain
# partner: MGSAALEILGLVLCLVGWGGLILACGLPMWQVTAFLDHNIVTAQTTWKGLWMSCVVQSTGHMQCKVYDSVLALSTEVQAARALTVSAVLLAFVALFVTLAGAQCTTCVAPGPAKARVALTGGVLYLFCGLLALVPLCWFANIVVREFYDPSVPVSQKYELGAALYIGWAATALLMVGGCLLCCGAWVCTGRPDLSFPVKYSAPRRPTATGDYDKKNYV
# B13: Very-long-chain enoyl-CoA reductase (Homo sapiens), Q9NZ01 (parent)
# chain: B1 chain
# partner: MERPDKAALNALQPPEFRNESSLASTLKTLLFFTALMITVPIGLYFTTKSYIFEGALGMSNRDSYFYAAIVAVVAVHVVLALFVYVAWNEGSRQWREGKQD
# B14: Golgi SNAP receptor complex member 2 (Homo sapiens), O14653 (parent)
# chain: B4 chain
# partner: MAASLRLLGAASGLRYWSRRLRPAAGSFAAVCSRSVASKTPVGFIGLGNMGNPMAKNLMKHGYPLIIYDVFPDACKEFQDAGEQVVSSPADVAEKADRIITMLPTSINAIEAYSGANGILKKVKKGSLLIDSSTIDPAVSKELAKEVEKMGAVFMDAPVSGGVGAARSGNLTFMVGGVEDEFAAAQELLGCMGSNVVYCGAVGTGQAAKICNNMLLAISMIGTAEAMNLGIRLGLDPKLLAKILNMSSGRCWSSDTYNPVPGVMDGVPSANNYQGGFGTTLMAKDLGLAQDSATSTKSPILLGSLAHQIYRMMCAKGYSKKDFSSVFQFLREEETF
# Variants of: B1
# Details: with tfam_human TFAM
row,effect of a mutation on the interaction,Variant
1,disrupting interaction strength,P182L

# Variants of: B2
# Details: with cld7_human CLDN7, O95471
row,effect of a mutation on the interaction,Variant
1,disrupting interaction strength,R6T
2,with no effect,G123D

# Variants of: B3
# Details: with got1a_human GOLT1A
row,effect of a mutation on the interaction,Variant
1,with no effect,P182L

# Variants of: B4
# Details: with elov5_human ELOVL5, Q9NYP7
row,effect of a mutation on the interaction,Variant
1,with no effect,G144W

# Variants of: B5
# Details: with tr10d_human TNFRSF10D
row,effect of a mutation on the interaction,Variant
1,disrupting interaction strength,D251N
2,disrupting interaction strength,G118R

# Variants of: B6
# Details: with cy561_human CYB561, P49447
row,effect of a mutation on the interaction,Variant
1,with no effect,G144W

# Variants of: B7
# Details: with gpx8_human GPX8, Q8TED1
row,effect of a mutation on the interaction,Variant
1,with no effect,G144W

# Variants of: B8
# Details: with cr3l1_human CREB3L1, Q96BA8
row,effect of a mutation on the interaction,Variant
1,with no effect,R6T
2,with no effect,G123D
3,with no effect,L47F

# Variants of: B9
# Details: with dhb13_human HSD17B13, Q7Z5P4
row,effect of a mutation on the interaction,Variant
1,with no effect,G144W

# Variants of: B10
# Details: with FAM209A
row,effect of a mutation on the interaction,Variant
1,with no effect,G123D

# Variants of: B11
# Details: with stmn2_human STMN2, Q93045
row,effect of a mutation on the interaction,Variant
1,with no effect,V94D

# Variants of: B12
# Details: with cld5_human CLDN5, O00501
row,effect of a mutation on the interaction,Variant
1,disrupting interaction strength,P182L

# Variants of: B13
# Details: with vma21_human VMA21, Q3ZAQ7
row,effect of a mutation on the interaction,Variant
1,disrupting interaction strength,P182L

# Variants of: B14
# Details: with 3hidh_human HIBADH
row,effect of a mutation on the interaction,Variant
1,disrupting interaction strength,G144W

# — IntAct's records for PubMed 32296183
